For four molecules, Kd and koff results are on record in PMC10899660 (2024).

B1: Ece1-II, synthetic peptide (peptide)
peptide: DVAPAAPAAPADQAPTVPAPQEFNTAITKR
B2: Recombinant Cyclin H (CCNH) protein with a C-HIS tag (natural protein)
chain: MYHNSSQKRHWTFSSEEQLARLRADANRKFRCKAVANGKVLPNDPVFLEPHEEMTLCKYYEKRLLEFCSVFKPAMPRSVVGTACMYFKRFYLNNSVMEYHPRIIMLTCAFLACKVDEFNVSSPQFVGNLRESPLGQEKALEQILEYELLLIQQLNFHLIVHNPYRPFEGFLIDLKTRYPILENPEILRKTADDFLNRIALTDAYLLYTPSQIALTAILSSASRAGITMESYLSESLMLKENRTCLSQLLDIMKSMRNLVKKYEPPRSEEVAVLKQKLERCHSAELALNVITKKRKGYEDDDYVSKKSKHEEEEWTDDDLVESL
B3: Ece1-IV, synthetic peptide (peptide)
peptide: EDIDSVVAGIIADMPFVVRAVDTAMTSVASTKR
B4: Ece1-V, synthetic peptide (peptide)
peptide: DGANDDVANAVVRLPEIVARVATGVQQSIENAKR

Experiment in all cases: SPR
(Surface plasmon resonance follows binding to a sensor surface in real time, without labels.)

The target of assay [1] is B2.
Assay [2] addresses B2.
In a further assay the target is Ece1-III.

One may read the Kd as the concentration at which binding is half-saturated. One may read the koff as the rate constant with which the complex falls apart. As to B1, in assay [1], the Kd stood at 9.13 µM. Moreover, the koff in assay [2] is 0.00415 s⁻¹.

With B2, in the assay with Ece1-III, binding was put at a Kd of 0.0172 µM and the koff is 0.00171 s⁻¹.

For the molecule B3, the Kd in assay [1] amounted to 5.98 µM. The koff in assay [2] turned out to be 0.000297 s⁻¹.

In the case of B4, the Kd in assay [1] came to 3.16 µM. The koff in assay [2] is 0.000719 s⁻¹.
